In publication PMC8594078:
Read-outs that look alike come from different tables or passages of the source.

B1: Apt 6 (ssDNA)
DNA: ATAGTCCCTGGCGTGCTTGACAGCAACACGAACACTGAACGTTCTTAACAAGCCTGGCAGAGCAGGTACGGTGTCA
B2: Apt 14 (ssDNA)
DNA: ATAGTCCCTGGCGTGCTTCCGCGAGAGTTCGACATTCCCGAAAGTACGACGAAAGTCCAGAGCAGGTACGGTGTCA

Legend:
[1] = molecular target: T1, biotinylated human ACE2 (Acrobiosystems EP-105 kit) (Homo sapiens, UniProt Q9BYF1 18-740); experiment: competition ELISA
[2] = molecular target: T1, biotinylated human ACE2 (Acrobiosystems …); experiment: competition ELISA; remark: listed apart in the source

T1 sequence (Q9BYF1 18-740): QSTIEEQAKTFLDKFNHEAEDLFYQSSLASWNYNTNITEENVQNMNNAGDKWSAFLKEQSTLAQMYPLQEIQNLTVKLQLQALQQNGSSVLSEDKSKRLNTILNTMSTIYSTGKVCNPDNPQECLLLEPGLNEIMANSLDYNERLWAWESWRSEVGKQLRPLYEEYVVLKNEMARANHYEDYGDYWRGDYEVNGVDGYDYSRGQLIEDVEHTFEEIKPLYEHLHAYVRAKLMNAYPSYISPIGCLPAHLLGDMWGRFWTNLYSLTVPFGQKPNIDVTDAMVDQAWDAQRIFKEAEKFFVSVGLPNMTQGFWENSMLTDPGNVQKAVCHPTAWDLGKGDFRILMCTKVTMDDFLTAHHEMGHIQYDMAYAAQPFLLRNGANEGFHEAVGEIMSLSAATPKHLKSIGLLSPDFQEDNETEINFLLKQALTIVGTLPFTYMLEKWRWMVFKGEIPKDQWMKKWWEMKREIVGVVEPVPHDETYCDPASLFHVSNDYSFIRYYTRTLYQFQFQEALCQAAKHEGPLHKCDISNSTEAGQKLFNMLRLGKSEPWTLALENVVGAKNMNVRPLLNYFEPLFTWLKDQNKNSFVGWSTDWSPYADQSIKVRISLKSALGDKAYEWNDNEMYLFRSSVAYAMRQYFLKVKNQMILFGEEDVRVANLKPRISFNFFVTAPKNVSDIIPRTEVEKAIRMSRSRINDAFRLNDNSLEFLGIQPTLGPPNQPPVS

Binder	IC50 [1] [nM]	IC50 [2] [nM]
B1	33	35
B2	47	132
